Source: FireProtDB (doi:10.1021/bi0015717)
Values joined by “and” are separate entries in the source; they are usually repeats but may differ in a detail not shown here. Equal entries are not always repeated.

B1: Lysozyme C, P61626 (parent)
chain: MKALIVLGLVLLSVTVQGKVFERCELARTLKRLGMDGYRGISLANWMCLAKWESGYNTRATNYNAGDRSTDYGIFQINSRYWCNDGKTPGAVNACHLSCSALLQDNIADAVACAKRVVRDPQGIRAWVAWRNRCQNRDVRQYVQGCGV

Variants of: B1
Settings: Homo sapiens; pH 2.5; Thermal; DSC; glycine-HCl 0.05 M; reversible: yes; structure 1LZ1; whole UniProt chain shown

Row | Variant | Tm [°C] | unfolding enthalpy (calorimetric) [kcal/mol]
1 | V92M | 63.4 | 107
2 | V92L | 62.4 | 100
3 | V128L | 61.9 | 105

Same assay, conditions: Homo sapiens; pH 2.7; 64.9 °C; Thermal; DSC; glycine-HCl 0.05 M; reversible: yes; structure 1LZ1; whole UniProt chain shown

Row | Variant | ddG of mutation (higher = less stable) [kcal/mol]
4 | V92M | -0.65
5 | V92I | -0.45
6 | V92L | -0.19
7 | V128L | -0.07
8 | V128F | 0.05
9 | V128I | -0.86
10 | V128G | -0.48

Same assay, conditions: Homo sapiens; pH 2.7; Thermal; DSC; glycine-HCl 0.05 M; reversible: yes; structure 1LZ1; whole UniProt chain shown

Row | Variant | Tm | change of melting temperature, mutant - wild type (higher = more stable) [°C] | heat capacity change of unfolding [kcal/mol/K] | unfolding enthalpy (calorimetric)
11 | V92M | 66.9 °C and 64.9 °C | 2 | 1.58 | 113 kcal/mol and 109 kcal/mol
12 | V92I | 66.6 °C and 64.9 °C | 1.7 | 1.2 | 88.4 kcal/mol
13 | V92L | 65.3 °C and 65.5 °C and 64.9 °C | 0.6 | 1.27 | 104 kcal/mol and 103 kcal/mol
14 | V128M | 66.3 °C and 66.5 °C and 64.9 °C | 1.6 | 1.41 | 114 kcal/mol and 112 kcal/mol
15 | V128L | 65 °C and 65.1 °C and 64.9 °C | 0.2 | 1.29 | 108 kcal/mol and 109 kcal/mol
16 | V128F | 64.7 °C and 64.9 °C | -0.2 | 1.7 | 101 kcal/mol
17 | V128I | 67.3 °C and 67.6 °C and 64.9 °C | 2.7 | 1.65 | 111 kcal/mol and 107 kcal/mol
18 | V128G | 66.5 °C and 64.9 °C | 1.6 | 1.82 | 99.9 kcal/mol

Same assay, conditions: Homo sapiens; pH 2.83; Thermal; DSC; glycine-HCl 0.05 M; reversible: yes; structure 1LZ1; whole UniProt chain shown

Row | Variant | Tm [°C] | unfolding enthalpy (calorimetric) [kcal/mol]
19 | V92M | 69.4 | 117
20 | V92L | 67.5 | 107

Same assay, conditions: Homo sapiens; pH 3.1; Thermal; DSC; glycine-HCl 0.05 M; reversible: yes; structure 1LZ1; whole UniProt chain shown

Row | Variant | Tm [°C] | unfolding enthalpy (calorimetric) [kcal/mol]
21 | V92M | 73.2 | 123

Same assay, conditions: Homo sapiens; pH 3.2; Thermal; DSC; glycine-HCl 0.05 M; reversible: yes; structure 1LZ1; whole UniProt chain shown

Row | Variant | Tm [°C] | unfolding enthalpy (calorimetric) [kcal/mol]
22 | V92M | 75 | 125

Same assay, conditions: Homo sapiens; pH 2.67; Thermal; DSC; glycine-HCl 0.05 M; reversible: yes; structure 1LZ1; whole UniProt chain shown

Row | Variant | Tm [°C] | unfolding enthalpy (calorimetric) [kcal/mol]
23 | V92I | 66.1 | 89.9

Same assay, conditions: Homo sapiens; pH 2.8; Thermal; DSC; glycine-HCl 0.05 M; reversible: yes; structure 1LZ1; whole UniProt chain shown

Row | Variant | Tm [°C] | unfolding enthalpy (calorimetric) [kcal/mol]
24 | V92I | 68.3 | 92.5
25 | V128F | 66.3 | 103

Same assay, conditions: Homo sapiens; pH 3; Thermal; DSC; glycine-HCl 0.05 M; reversible: yes; structure 1LZ1; whole UniProt chain shown

Row | Variant | Tm [°C] | unfolding enthalpy (calorimetric) [kcal/mol]
26 | V92I | 71.7 | 96.6

Same assay, conditions: Homo sapiens; pH 3.05; Thermal; DSC; glycine-HCl 0.05 M; reversible: yes; structure 1LZ1; whole UniProt chain shown

Row | Variant | Tm [°C] | unfolding enthalpy (calorimetric) [kcal/mol]
27 | V92L | 71.6 | 112

Same assay, conditions: Homo sapiens; pH 3.15; Thermal; DSC; glycine-HCl 0.05 M; reversible: yes; structure 1LZ1; whole UniProt chain shown

Row | Variant | Tm [°C] | unfolding enthalpy (calorimetric) [kcal/mol]
28 | V92L | 73.3 | 114

Same assay, conditions: Homo sapiens; pH 2.48; Thermal; DSC; glycine-HCl 0.05 M; reversible: yes; structure 1LZ1; whole UniProt chain shown

Row | Variant | Tm [°C] | unfolding enthalpy (calorimetric) [kcal/mol]
29 | V128M | 62.8 | 109

Same assay, conditions: Homo sapiens; pH 3.06; Thermal; DSC; glycine-HCl 0.05 M; reversible: yes; structure 1LZ1; whole UniProt chain shown

Row | Variant | Tm [°C] | unfolding enthalpy (calorimetric) [kcal/mol]
30 | V128M | 72.8 | 123

Same assay, conditions: Homo sapiens; pH 2.82; Thermal; DSC; glycine-HCl 0.05 M; reversible: yes; structure 1LZ1; whole UniProt chain shown

Row | Variant | Tm [°C] | unfolding enthalpy (calorimetric) [kcal/mol]
31 | V128L | 67 | 111

Same assay, conditions: Homo sapiens; pH 3.03; Thermal; DSC; glycine-HCl 0.05 M; reversible: yes; structure 1LZ1; whole UniProt chain shown

Row | Variant | Tm [°C] | unfolding enthalpy (calorimetric) [kcal/mol]
32 | V128L | 70.5 | 115

Same assay, conditions: Homo sapiens; pH 3.25; Thermal; DSC; glycine-HCl 0.05 M; reversible: yes; structure 1LZ1; whole UniProt chain shown

Row | Variant | Tm [°C] | unfolding enthalpy (calorimetric) [kcal/mol]
33 | V128L | 74.5 | 121

Same assay, conditions: Homo sapiens; pH 2.72; Thermal; DSC; glycine-HCl 0.05 M; reversible: yes; structure 1LZ1; whole UniProt chain shown

Row | Variant | Tm [°C] | unfolding enthalpy (calorimetric) [kcal/mol]
34 | V128F | 65.1 | 101

Same assay, conditions: Homo sapiens; pH 3.04; Thermal; DSC; glycine-HCl 0.05 M; reversible: yes; structure 1LZ1; whole UniProt chain shown

Row | Variant | Tm [°C] | unfolding enthalpy (calorimetric) [kcal/mol]
35 | V128F | 70.5 | 110

Same assay, conditions: Homo sapiens; pH 2.53; Thermal; DSC; glycine-HCl 0.05 M; reversible: yes; structure 1LZ1; whole UniProt chain shown

Row | Variant | Tm [°C] | unfolding enthalpy (calorimetric) [kcal/mol]
36 | V128I | 64.9 | 107

Same assay, conditions: Homo sapiens; pH 2.9; Thermal; DSC; glycine-HCl 0.05 M; reversible: yes; structure 1LZ1; whole UniProt chain shown

Row | Variant | Tm [°C] | unfolding enthalpy (calorimetric) [kcal/mol]
37 | V128I | 70.9 | 117

Same assay, conditions: Homo sapiens; pH 3.13; Thermal; DSC; glycine-HCl 0.05 M; reversible: yes; structure 1LZ1; whole UniProt chain shown

Row | Variant | Tm [°C] | unfolding enthalpy (calorimetric) [kcal/mol]
38 | V128I | 74.9 | 123

Same assay, conditions: Homo sapiens; pH 3.23; Thermal; DSC; glycine-HCl 0.05 M; reversible: yes; structure 1LZ1; whole UniProt chain shown

Row | Variant | Tm [°C] | unfolding enthalpy (calorimetric) [kcal/mol]
39 | V128I | 76.8 | 127

Same assay, conditions: Homo sapiens; pH 2.6; Thermal; DSC; glycine-HCl 0.05 M; reversible: yes; structure 1LZ1; whole UniProt chain shown

Row | Variant | Tm [°C] | unfolding enthalpy (calorimetric) [kcal/mol]
40 | V128G | 64.6 | 99.9

Same assay, conditions: Homo sapiens; pH 2.94; Thermal; DSC; glycine-HCl 0.05 M; reversible: yes; structure 1LZ1; whole UniProt chain shown

Row | Variant | Tm [°C] | unfolding enthalpy (calorimetric) [kcal/mol]
41 | V128G | 70.6 | 110

Same assay, conditions: Homo sapiens; pH 3.11; Thermal; DSC; glycine-HCl 0.05 M; reversible: yes; structure 1LZ1; whole UniProt chain shown

Row | Variant | Tm [°C] | unfolding enthalpy (calorimetric) [kcal/mol]
42 | V128G | 73.4 | 115

Same assay, conditions: Homo sapiens; pH 3.3; Thermal; DSC; glycine-HCl 0.05 M; reversible: yes; structure 1LZ1; whole UniProt chain shown

Row | Variant | Tm [°C] | unfolding enthalpy (calorimetric) [kcal/mol]
43 | V128G | 76.6 | 122
